{
  "source": "the nanobody polyreactivity screen of Harvey et al. (2022)",
  "data": [
    {"experiment": "yeast display, Sf9 membrane polyspecificity reagent, FACS + sequencing; frameworks hold sequencing errors", "method_in_brief": "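Nanobodies from a synthetic yeast display library (Saccharomyces cerevisiae BJ5465), induced 36–48 hours with galactose, were stained 1 hour at 4 °C with 10% biotinylated, detergent-solubilized Sf9 membrane reagent, enriched on streptavidin microbeads, then FACS-sorted. Anti-HA (expression) and streptavidin (reagent binding) fluorescence set low and high (top ~1%) gates. Polyreactivity labels come from the gate of origin. Genes were colony-PCR amplified, MiSeq 2 × 250 sequenced and filtered by CDR length.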", "values": [
      {"sequence": "QVQLQESSGGLVQAGGTLRMSCAASGTIFHFHIMGWYRQAPGKEREFVAAISYGTSTYYADSVKCRFTISRDNAKNTVFLQMNSQNPEDNEVYYCAVYDYLEVYCWYWGQGTQVTVSS", "polyreactivity (PSR sort gate)": "low polyreactivity"},
      {"sequence": "QVQLQESVGGLVQACGSQRLICAASGYIFSHQYMGCYRQAPGKERELVASMSPGATTNYADRVKGRFTISRDNAKNTVYLQMNSLKTEDTAVYYYAVYQILDRRLSYWGQGTQVTVSC", "polyreactivity (PSR sort gate)": "high polyreactivity"},
      {"sequence": "QVQLQESVGGLVQAGGSLRLSCAASGNIFPTHRMGWYRQAPGKELEFVATISDGGSTNYADSVKGRFTISRDHAKNTVYLQMNSLKPEDTAVYYCAVLSLGRLRHYYWGQGTQVTVSS", "polyreactivity (PSR sort gate)": "low polyreactivity"},
      {"sequence": "QVQLQGSGGGLAQAGDSLRLSCAASGTIFSEYNNGLVSPGAGQRTRTCCRYWCWGNTYYADSAKGRFTTSRDNAKNTVYLQKHSLKPADTAVYYCAFNRPFPSRHIYRGQGTQVTVSS", "polyreactivity (PSR sort gate)": "high polyreactivity"},
      {"sequence": "QVQLQGSGGGLAQAGDSLRLSCAASGTIFSEYNNGLVSPGAGQRTRTCCRYWCWGNTYYADSAKRRFTTSRDNAKNTLYLQKNSLKPEDTAVYYCAFNRPYPSRHIYRGQGTQVTVSS", "polyreactivity (PSR sort gate)": "high polyreactivity"},
      {"sequence": "QVQLQGSGGGLVQAGGSLRLSCAASGNIFDADIMAWYRQAPGKESELVASITDGGSTNYADSVKGRFTISRDNAKNTVYLQMNSLKQEDTAVYYCADIAYPDIPTYFDYDSDCFYWSQGTQVTVSS", "polyreactivity (PSR sort gate)": "high polyreactivity"},
      {"sequence": "QVQLVASGGGLLQAGGSLRLSCAASGRILRVYAMGWYRPAPGKESELVAAITWRGGSTYYADSVKGRFTISRDNAKNTVYLQMNSLKPEDTAVYYCAAEAYSYGYSALLYDYWGQGTQVTVSS", "polyreactivity (PSR sort gate)": "high polyreactivity"},
      {"sequence": "QVQLVASGGGLVHAGASLRLSCAASGRIFTGNVMGWYRQAHWKERELVAAISVSGGRTYYADSVKGRFTISRDYAKNTVYLQMNSLKPVDSAVYYCNARYSRVWYGGDYWGQGTQVTVSS", "polyreactivity (PSR sort gate)": "high polyreactivity"},
      {"sequence": "QVQLVASGGGLVQAGGSLRISCAASGSIIYYYAMGWYRHAPRKERELVAAISTSSGRTYYADSVKGRFTISRDNAKNTVYLQMNSLKPEDTAVYYCANEIPFTRYTWPRYNYWGQGTQVTVSS", "polyreactivity (PSR sort gate)": "high polyreactivity"},
      {"sequence": "QVQLVASGGGLVQAGGSLRLRCAASGFIFRYNTMGWYRQAPGKEREMVAVINRGGSTYYADSVKGRFTISRDNAKNTVYLQLNSLKAEDTGVYDCNVAKFGRYYYWGQGTQVTVSS", "polyreactivity (PSR sort gate)": "high polyreactivity"},
      {"sequence": "QVQLVASGGGLVQAGGSLRLSCAASGFIVSVYAMGWYRQAPGKERELVAVISTSGGRTYYADSVKGRFTISRDNAQNTVYLQMNSLKPEDTAVYYCAADGFQYTLGNYYWGQGTHVTVSS", "polyreactivity (PSR sort gate)": "high polyreactivity"},
      {"sequence": "QVQLVASGGGLVQAGGSLRLSCAASGLIIRYYAMGWYRQAPGKEREFVAAITWNGGSTYADSVKGRFTISRDNAKNTVNLQMNSLIPEDTAVYYCAADLSYWDDFDYSGQGTQVTVSS", "polyreactivity (PSR sort gate)": "low polyreactivity"},
      {"sequence": "QVQLVASGGGLVQAGGSLRLSCAASGSTFARYAMGWYTPAPGKERELVAAITEGGDRTSYADSVKGRFTISRDNAKNHVYLQMHSLKPEDTAVYYCAAERRYESWYFGYRTMDYWGQGTQVTVSS", "polyreactivity (PSR sort gate)": "low polyreactivity"},
      {"sequence": "QVQLVASGGGLVQAGGSLRLSCAASGSTFDIYAMGWYRQAPGKERELVAAISVSDVYTYYADSVKGRFTISRDNAKNTVYLQMNSLKPEDTAVYYCAAETPTHDEWGQGTQVTVSS", "polyreactivity (PSR sort gate)": "high polyreactivity"},
      {"sequence": "QVQLVASGGGLVQAGGSLRLSCAASGSTFTQNAMGWDRPAPGQEREVVAAISWSGARTYYADSVKGRFTISRHNAKNTVYLQMNSRKPEDPAVYDCNNYARKRGTTYDYWGHGTQVTVSS", "polyreactivity (PSR sort gate)": "high polyreactivity"},
      {"sequence": "QVQLVASGGGLVQAGGSLRLSCAASGSTLDVYAMGWYRQAPGKERELVASISGSGGRTYYADSVKGRFTISRDNAKNTVYLQLNSQNPEDTAVYYCAADVRSYVASRSYRYDYWGQGNQVTVSS", "polyreactivity (PSR sort gate)": "low polyreactivity"},
      {"sequence": "QVQLVASGGGLVQAGGSLRLSCAATGSIFYFYAMGWYRPAPWKERELVAAITDCGASTRYADSVKGRFTISRDNAKNTVYLQMNSLKPEDTAVYYCAAVRYHISYREYYWGQGTQVTESS", "polyreactivity (PSR sort gate)": "high polyreactivity"},
      {"sequence": "QVQLVASGGGLVQAGGTLRLSCAASGRIFGRYGMGWYSQAPGKERELVAAISRSGDRTYYADSVKGRFTISRDNAKNTVYLPMNSLKPEDTAVYYCAAYSYRYDYWGQGTQVTVAS", "polyreactivity (PSR sort gate)": "high polyreactivity"},
      {"sequence": "QVQLVASGGGLVQSGGSLRLSCAASGLTFEQYAMGWYRQAPGKERELVAAISRRGTSTYYADSVKARFTISRDYAKNYVYLQMNSRKPEDTAVYYCNAGWWYLGSPFDRDYWGQGTLVTVSS", "polyreactivity (PSR sort gate)": "high polyreactivity"},
      {"sequence": "QVQLVDSCGGLVQAGGSLRLSCYDSGSTFPYKAMGWYRQAPGKERELVAAITSGASTNYADSVKGRFTISRDNAKNTVYLQMNSLTPEDTAVYYCAAQSYGKRIWSPRFQLNYWGQGTQVTVSS", "polyreactivity (PSR sort gate)": "low polyreactivity"},
      {"sequence": "QVQLVDSGGCLFQAGGTLRLSCAASGFTLRAYAMGWYRQGPGKEREFVAVISRSDGSTYYADTVKGRFTISRENAKNTVYLQMNSLKPEDSAVYYCADKHRGAKYDYWGQGTQVTVSS", "polyreactivity (PSR sort gate)": "low polyreactivity"},
      {"sequence": "QVQLVDSGGCLVQAGGSLRLSCAASGRTDGINAMGWYRQAPGKERELVAAIDSIDGTTYYADSVKGRFTISRDNAKNTVYLQMNSLKQEDTAVYYCAAEFISSYDYWGQGTQVTVSS", "polyreactivity (PSR sort gate)": "high polyreactivity"},
      {"sequence": "QVQLVDSGGCLVQAGGSLRLSCAASGRTFYRYAMGWYRQAPGKEREFVARITTSGGSTYYADSVKGRFTISRDNAKNTVYLKMNSLKPEDTEVYYCNARGVTYAFFRFDYWGQGTQVTVSS", "polyreactivity (PSR sort gate)": "high polyreactivity"},
      {"sequence": "QVQLVDSGGGIVQAGGSLRLSCPASGSTFGSYALGWSRQKPGKEREWVAAITSAGSTNYADSVKGRFTISRDNAKNTVYLQMNSLKPEDTAVYYCNDVRYYSYQYDPEVTHRYGYWGQGSQVTVSS", "polyreactivity (PSR sort gate)": "high polyreactivity"},
      {"sequence": "QVQLVDSGGGLDQAGGSLPLSCAASGSTFVAYAMGWYRQAPGKERELVADNSTSDGSTRYADSVKGRFTISRDNAKNTVYLQMNSLKPEDTAVYYCAAGSEYYSYGGVRFSFYYWGQGTQVTVSS", "polyreactivity (PSR sort gate)": "low polyreactivity"},
      {"sequence": "QVQLVDSGGGLDQAGGSLRLSCAAAGSIFYSYAMGWYSQATGKDSELVADISSDGSTNYADSVKGRFTISRDNAKNTVYVQINSLKPEDTAVYYCAKKPSSARYVTIGFDEWGHGTQVTVSS", "polyreactivity (PSR sort gate)": "low polyreactivity"},
      {"sequence": "QVQLVDSGGGLFQPGGSLRLSCAASGSTFSDNAMGWYRQAPGKERELVASISSDDGSTYADSVKGRFTISRDNAMNTVYLQMNSLKSEDTAVYYCAADGFLAIYAAEYDYWGQGTQVTVSS", "polyreactivity (PSR sort gate)": "low polyreactivity"},
      {"sequence": "QVQLVDSGGGLVPAGGSLRLSCAASGFTFTRYVMGWYRQAPGKERELVAAISGSGGSTNYADSVKGRFTISRDNAKNTVYLQMNSLKPEDTAVYYCAVGYRGWDGYWGQGTQVTVSS", "polyreactivity (PSR sort gate)": "high polyreactivity"},
      {"sequence": "QVQLVDSGGGLVQAGGGLRLSCAASGRIFVKYGMGWYRQAPGKERELVAAISWTGGSTYYADSVKGRFTISRDNEKNTVYLQMNSLKPEDTAVYYCAKSFGIWHARWLTYDYWGQGTQVTVSS", "polyreactivity (PSR sort gate)": "low polyreactivity"},
      {"sequence": "QVQLVDSGGGLVQAGGILRLSCAASGRTFWIYAMGWYRQAPGKERQLVAAITGSGGSTYYADSVKGRFTISRDNAKNTGYLQMICLKPEDTAVYYCNARVPDCYKWSAYYSHDYWGQGTQVTVSS", "polyreactivity (PSR sort gate)": "low polyreactivity"},
      {"sequence": "QVQLVDSGGGLVQAGGILRLSSPASGSTFKYYTMGRSRQAPGKEREWVAGITLSGPTTYYADSVKGRFTISRDNAKNTVYLQMNSLKPEDTAVYYCAADYYHDFNAYYYWGQGTQVTVSS", "polyreactivity (PSR sort gate)": "low polyreactivity"},
      {"sequence": "QVQLVDSGGGLVQAGGRLRLSCAASGFIFGRNAMGWYRQAPGKERELVAGISSSGVRTFYADSVKGRFTISRDNAKNTVYLQMNSLKPEDNAVYYCATRGRVYPTKYSLDEDYWGQGTQVTVSS", "polyreactivity (PSR sort gate)": "high polyreactivity"},
      {"sequence": "QVQLVDSGGGLVQAGGRLRLSCAASGSTFGHNAMGWYRQAPGKERQLLAAISRSGGITYYADSVKGRFTISRDNAKNTVYLQLNSLKPEDTAVYYCAADAWFSLRYAPRSYAYGYWGQGTQVTVSS", "polyreactivity (PSR sort gate)": "low polyreactivity"},
      {"sequence": "QVQLVDSGGGLVQAGGRLRLSCAPSGLTFARNAMGWYIQAPGKERELVAAISRSGGRTSYADSVKGRFTISRDIAKNTVYVQMNSLKPVDTAVYYCAARSDVYSHDYWGQGTQVTVSS", "polyreactivity (PSR sort gate)": "high polyreactivity"},
      {"sequence": "QVQLVDSGGGLVQAGGRLRLSCDASGLTLYKNGLGWYRLEPVKERELFAVISRSGGRTYYADSVKGRFTISRDNAKNTVYLQFNSLKPEETAVYYCAARGIGPTKYDYLGQGTQVTVSS", "polyreactivity (PSR sort gate)": "high polyreactivity"},
      {"sequence": "QVQLVDSGGGLVQAGGSHRLSCAASGLTYHQYAMGWYRQAPGKERELVAAITSDGASTNYADSVKGRFTISRDNAKNTVYLQMISLKPEDTAVYYGAARRRSRQYRYDYWGQGTQVTVSS", "polyreactivity (PSR sort gate)": "high polyreactivity"},
      {"sequence": "QVQLVDSGGGLVQAGGSLRFSCAASGRTSNVYAMGWFRQAPGKERELVAAISARDGTTYNADSVKGRFTISRDNAKNTVYLQMNSLKPEDTAVYYCAAAVLSYADYYYDYEYWGQGTQVTVSS", "polyreactivity (PSR sort gate)": "high polyreactivity"},
      {"sequence": "QVQLVDSGGGLVQAGGSLRISCAASGRNFGYNAMGSYRQAPGKERELVAAISSGGSTYYADSVKGLFTISRDNAKNTVYLQINSLKPEDTAVYFCAAEDYPPYPTDYDYWGQGSQVTVSS", "polyreactivity (PSR sort gate)": "low polyreactivity"},
      {"sequence": "QVQLVDSGGGLVQAGGSLRLICAASGRTFGGNTMGWYREAPGKERELVAAISRRGGSTYYADSVKGRFSISRDNAKNTVYLQMNSLKPEDTAVYYCNKDGPSYSSYDYWGQGTQVTVSS", "polyreactivity (PSR sort gate)": "low polyreactivity"},
      {"sequence": "QVQLVDSGGGLVQAGGSLRLICAASGSIFIDKAMGWYRQAPGKERELVAAISWSGGRTYYADSVKGRFTISRDNAKNTVYLQMNSLKPEDTAVYYCAVDFRHPYDYDYWGQGTQVTVSS", "polyreactivity (PSR sort gate)": "high polyreactivity"},
      {"sequence": "QVQLVDSGGGLVQAGGSLRLSCAAAGSNLSQYAMGWYRQAPGKERELVAAITYGGGSTYYADSVKGRFTISRDNAKKTVHIQMISLKPEDPAVYYCALEFTYWGDPYDYWGQGTQVTVSS", "polyreactivity (PSR sort gate)": "low polyreactivity"},
      {"sequence": "QVQLVDSGGGLVQAGGSLRLSCAASGFIDALDAMGWYRQAPGKERELVAAISYSGGSTYYADSVKGRFTISRDNAKNTVYLQMNSLKPEDTAVYYCAVYYRSAFYYWGQGTQVTVSS", "polyreactivity (PSR sort gate)": "high polyreactivity"},
      {"sequence": "QVQLVDSGGGLVQAGGSLRLSCAASGFIFDTNVMGWYRQAPGKERELVAAISWDVDSTYYADSVKGRFTISRDNAKNTVYLQMNSLKPEDTAVYYCATETFDYYGLAGEYWGQGTQVTVSS", "polyreactivity (PSR sort gate)": "high polyreactivity"}
    ]}
  ]
}
